Where “and” joins values, the source holds several entries; their conditions need not be identical. Identical values can stand only once.
T1: recombinant cynomolgus monkey αvβ8 integrin (cynomolgus monkey, limits assumed)
T1 construct: Recombinant protein immobilised on the Biacore chip; also called cyno αvβ8; cynomolgus αvβ8
T1 chain 1: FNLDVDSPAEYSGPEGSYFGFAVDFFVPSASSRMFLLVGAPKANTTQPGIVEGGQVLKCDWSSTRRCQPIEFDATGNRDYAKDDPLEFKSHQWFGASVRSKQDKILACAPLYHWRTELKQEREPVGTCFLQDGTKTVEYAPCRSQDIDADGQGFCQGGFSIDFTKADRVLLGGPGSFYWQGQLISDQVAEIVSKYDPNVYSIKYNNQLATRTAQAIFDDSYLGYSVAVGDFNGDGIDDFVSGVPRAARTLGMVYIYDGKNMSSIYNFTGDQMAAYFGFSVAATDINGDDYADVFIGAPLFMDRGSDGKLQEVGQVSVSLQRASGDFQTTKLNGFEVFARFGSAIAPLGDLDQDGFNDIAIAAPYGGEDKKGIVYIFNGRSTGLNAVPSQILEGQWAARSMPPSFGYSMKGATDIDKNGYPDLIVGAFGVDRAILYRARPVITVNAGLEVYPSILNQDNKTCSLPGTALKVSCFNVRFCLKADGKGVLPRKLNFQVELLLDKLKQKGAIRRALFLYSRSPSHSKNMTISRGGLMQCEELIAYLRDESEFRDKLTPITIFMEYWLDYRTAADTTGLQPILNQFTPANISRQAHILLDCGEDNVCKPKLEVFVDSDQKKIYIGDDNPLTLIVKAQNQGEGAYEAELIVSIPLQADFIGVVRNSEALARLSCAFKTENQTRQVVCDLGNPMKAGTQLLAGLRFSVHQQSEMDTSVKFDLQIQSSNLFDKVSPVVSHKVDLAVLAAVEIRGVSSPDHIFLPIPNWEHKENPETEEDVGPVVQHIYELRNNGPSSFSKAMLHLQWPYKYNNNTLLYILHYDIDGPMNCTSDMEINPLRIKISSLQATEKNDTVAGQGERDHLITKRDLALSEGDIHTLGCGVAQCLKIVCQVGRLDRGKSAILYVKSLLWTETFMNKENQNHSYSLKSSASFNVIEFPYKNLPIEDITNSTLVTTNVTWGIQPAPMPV
T1 chain 2: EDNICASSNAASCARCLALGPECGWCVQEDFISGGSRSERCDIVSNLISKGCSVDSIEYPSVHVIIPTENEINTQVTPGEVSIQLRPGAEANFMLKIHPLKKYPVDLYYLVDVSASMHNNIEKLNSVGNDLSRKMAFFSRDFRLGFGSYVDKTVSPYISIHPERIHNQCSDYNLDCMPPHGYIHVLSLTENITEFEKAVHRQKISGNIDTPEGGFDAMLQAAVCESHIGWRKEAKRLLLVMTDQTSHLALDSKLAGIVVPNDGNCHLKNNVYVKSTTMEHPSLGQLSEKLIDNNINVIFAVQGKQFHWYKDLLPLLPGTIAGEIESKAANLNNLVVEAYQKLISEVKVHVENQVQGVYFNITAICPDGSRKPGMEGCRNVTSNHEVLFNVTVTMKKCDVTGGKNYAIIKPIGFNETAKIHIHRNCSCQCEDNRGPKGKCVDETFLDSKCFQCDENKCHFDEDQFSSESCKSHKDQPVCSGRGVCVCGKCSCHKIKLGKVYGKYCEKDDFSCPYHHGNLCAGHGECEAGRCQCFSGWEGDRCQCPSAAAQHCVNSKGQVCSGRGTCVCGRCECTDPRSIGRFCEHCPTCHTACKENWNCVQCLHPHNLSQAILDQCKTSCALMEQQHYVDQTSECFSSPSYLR

B1: Mouse hybridoma antibody ADWA-11 (antibody, V domains shown)
VH: EVQLQQSGAELVRPGAFVKLSCKASGFNIKDYYMNWVLQRPEQGLEWIGWIDPDNGNTIYDPKFQGKASITADTSSNTAYLQLSSLTSEDTAVYYCARRLLMDYWGQGTSVTVSS
VL: DIVMTQAAPSVPVTPGESVSISCRSTKSLLHFNGNTYLFWFLQRPGQSPQRLIYYMSNLASGVPDRFSGRGSGTDFTLRISRVEAEDVGVYYCMQSLEYPFTFGTGTKLEIK
notes: Whole native murine IgG from the hybridoma; also called mADWA11; mADWA-11
B2: hIgG_VH05VK01 (antibody, V domains shown)
VH: EVQLVESGGGLVQPGGSLRLSCAASGFNIKDYYMNWVRQAPGKGLEWVGWIDPDNGNTIYDPKFQGRFTISADTSKNSAYLQMNSLRAEDTAVYYCARRLLMDYWGQGTLVTVSS
VL: DIQMTQSPSSLSASVGDRVTITCRSTKSLLHFNGNTYLFWYQQKPGKAPKRLIYYMSNLASGVPSRFSGSGSGTDFTLTISSLQPEDFATYYCMQSLEYPFTFGQGTKVEIKR
B3: ADWA11 VH05/VK01 Fab (Fab, V domains shown)
VH: B2 VH
VL: DIQMTQSPSSLSASVGDRVTITCRSTKSLLHFNGNTYLFWYQQKPGKAPKRLIYYMSNLASGVPSRFSGSGSGTDFTLTISSLQPEDFATYYCMQSLEYPFTFGQGTKVEIK
notes: Fab; also called VH05-2_VK01 parental
B4: ADWA-11_4 mut (antibody, mouse IgG1, V domains shown)
VH: B1 VH
VL: B1 VL
B5: Mouse hybridoma ADWA-11 Fab (Fab, V domains shown)
VH: B1 VH
VL: B1 VL
notes: Fab; also called mFab; Ms ADWA11 Fab

Assays:
[1] = target: T2, human αvβ8 integrin on U251 cells (human, UniProt P06756 31-1048); test: cell-based or functional assay
[2] = target: recombinant human αvβ8 integrin (human) (UniProt P06756); test: ELISA on human αvβ8 (legend box: human avb8), mAb titration
[3] = target: T3, recombinant human αvβ3 integrin (human, UniProt P06756 31-992; P05106 27-718); test: ELISA (title Specificity Binding ELISA), absorbance 450 nm against [mAb] (nM)
T3 construct: Used in ELISA and immobilised on the Biacore chip; construct not described; also called hαvβ3; AVB3
T3 sequence (P05106 27-718 limits assumed, one chain of several): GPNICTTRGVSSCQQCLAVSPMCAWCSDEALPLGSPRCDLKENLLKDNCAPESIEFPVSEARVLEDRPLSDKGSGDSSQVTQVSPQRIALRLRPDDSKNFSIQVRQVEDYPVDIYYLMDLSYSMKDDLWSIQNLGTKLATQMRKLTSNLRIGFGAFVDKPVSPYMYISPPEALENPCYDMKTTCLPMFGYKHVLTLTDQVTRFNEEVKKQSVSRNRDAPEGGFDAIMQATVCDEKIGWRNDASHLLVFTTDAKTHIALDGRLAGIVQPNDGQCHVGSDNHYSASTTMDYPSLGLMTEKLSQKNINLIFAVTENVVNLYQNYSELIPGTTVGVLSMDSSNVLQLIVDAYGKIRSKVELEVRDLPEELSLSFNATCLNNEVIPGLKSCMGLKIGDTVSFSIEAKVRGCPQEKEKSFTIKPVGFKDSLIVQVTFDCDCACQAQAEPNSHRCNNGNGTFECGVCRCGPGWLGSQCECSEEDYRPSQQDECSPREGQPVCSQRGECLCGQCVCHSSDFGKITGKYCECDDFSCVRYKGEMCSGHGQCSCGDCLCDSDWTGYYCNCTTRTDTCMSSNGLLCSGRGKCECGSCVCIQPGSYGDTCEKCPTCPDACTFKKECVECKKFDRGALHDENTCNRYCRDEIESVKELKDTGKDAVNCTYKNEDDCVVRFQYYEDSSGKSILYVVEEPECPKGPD

[4] = target: T4, recombinant human αvβ6 integrin (human, UniProt P06756 31-992; P18564 22-707); test: as above
T4 construct: Used in ELISA and immobilised on the Biacore chip; construct not described; also called hαvβ6; AVB6
T4 sequence (P18564 22-707 limits assumed, one chain of several): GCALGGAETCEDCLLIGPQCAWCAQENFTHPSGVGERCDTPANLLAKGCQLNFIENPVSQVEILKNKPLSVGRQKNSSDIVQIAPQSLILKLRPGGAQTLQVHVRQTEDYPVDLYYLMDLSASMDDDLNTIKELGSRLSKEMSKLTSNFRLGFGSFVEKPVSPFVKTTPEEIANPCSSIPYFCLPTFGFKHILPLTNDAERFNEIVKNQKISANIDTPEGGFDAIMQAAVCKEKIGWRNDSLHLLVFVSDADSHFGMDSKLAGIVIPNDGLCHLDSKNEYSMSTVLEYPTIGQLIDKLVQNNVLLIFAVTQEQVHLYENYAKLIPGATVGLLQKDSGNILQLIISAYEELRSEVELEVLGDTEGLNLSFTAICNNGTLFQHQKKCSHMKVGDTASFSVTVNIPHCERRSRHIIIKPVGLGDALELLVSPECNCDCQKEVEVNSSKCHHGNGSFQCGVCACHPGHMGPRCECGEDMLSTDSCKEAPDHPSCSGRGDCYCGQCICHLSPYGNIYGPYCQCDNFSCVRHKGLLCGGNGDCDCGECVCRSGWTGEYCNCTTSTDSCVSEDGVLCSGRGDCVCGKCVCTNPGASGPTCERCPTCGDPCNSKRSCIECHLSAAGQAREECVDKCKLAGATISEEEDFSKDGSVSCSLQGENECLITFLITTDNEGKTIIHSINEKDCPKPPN

[5] = target: T2, human αvβ8 integrin on U251 cells; test: apparent KD, flow cytometry on U251 cells
[6] = target: T2, human αvβ8 integrin on U251 cells; test: flow cytometry, IgG binding to U251 cells (ΔMFI, background subtracted); EC50 unit inferred, axis Log10 [Ab] (nM); Table 7 of the text gives U251 app KD 430 pM
[7] = target: T2, human αvβ8 integrin on U251 cells; test: cell-based or functional assay; remark: listed apart in the source
[8] = target: recombinant human αvβ8 integrin (human) (UniProt P06756); test: SPR (Biacore), Fab affinity of Table 3
[9] = target: recombinant human αvβ8 integrin (human) (UniProt P06756); test: ELISA (DELFIA counts) on human αvβ8, Fab titration
Target sequence in this assay (P06756 31-992 limits assumed, form in doubt, chain 1 of 2): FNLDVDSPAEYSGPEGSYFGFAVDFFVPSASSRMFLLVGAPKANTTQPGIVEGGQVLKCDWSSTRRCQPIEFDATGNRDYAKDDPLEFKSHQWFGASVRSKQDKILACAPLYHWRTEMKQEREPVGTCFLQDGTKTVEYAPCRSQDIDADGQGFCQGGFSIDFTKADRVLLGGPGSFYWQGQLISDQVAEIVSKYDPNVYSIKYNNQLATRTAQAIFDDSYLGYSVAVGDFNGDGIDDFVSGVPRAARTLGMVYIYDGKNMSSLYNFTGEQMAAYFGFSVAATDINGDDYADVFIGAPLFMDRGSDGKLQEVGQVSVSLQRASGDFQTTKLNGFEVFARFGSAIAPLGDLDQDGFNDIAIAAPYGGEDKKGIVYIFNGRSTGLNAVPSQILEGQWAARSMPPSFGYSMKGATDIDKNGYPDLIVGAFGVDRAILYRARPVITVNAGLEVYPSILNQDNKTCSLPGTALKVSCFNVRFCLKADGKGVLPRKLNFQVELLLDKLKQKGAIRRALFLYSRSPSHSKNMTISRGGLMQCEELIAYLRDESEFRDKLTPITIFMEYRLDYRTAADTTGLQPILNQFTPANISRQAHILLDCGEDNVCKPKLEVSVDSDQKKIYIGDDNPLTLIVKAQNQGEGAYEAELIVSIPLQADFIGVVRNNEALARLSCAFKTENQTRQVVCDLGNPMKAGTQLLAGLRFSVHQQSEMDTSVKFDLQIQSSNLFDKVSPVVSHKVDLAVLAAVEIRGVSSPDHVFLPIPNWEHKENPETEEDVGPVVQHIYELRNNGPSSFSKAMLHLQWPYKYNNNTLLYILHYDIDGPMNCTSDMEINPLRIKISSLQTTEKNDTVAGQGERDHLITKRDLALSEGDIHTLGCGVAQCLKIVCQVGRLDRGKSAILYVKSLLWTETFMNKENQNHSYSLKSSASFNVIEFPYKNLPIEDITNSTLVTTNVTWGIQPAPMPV
Target sequence in this assay (chain, as listed by the source limits assumed, form in doubt, chain 2 of 2): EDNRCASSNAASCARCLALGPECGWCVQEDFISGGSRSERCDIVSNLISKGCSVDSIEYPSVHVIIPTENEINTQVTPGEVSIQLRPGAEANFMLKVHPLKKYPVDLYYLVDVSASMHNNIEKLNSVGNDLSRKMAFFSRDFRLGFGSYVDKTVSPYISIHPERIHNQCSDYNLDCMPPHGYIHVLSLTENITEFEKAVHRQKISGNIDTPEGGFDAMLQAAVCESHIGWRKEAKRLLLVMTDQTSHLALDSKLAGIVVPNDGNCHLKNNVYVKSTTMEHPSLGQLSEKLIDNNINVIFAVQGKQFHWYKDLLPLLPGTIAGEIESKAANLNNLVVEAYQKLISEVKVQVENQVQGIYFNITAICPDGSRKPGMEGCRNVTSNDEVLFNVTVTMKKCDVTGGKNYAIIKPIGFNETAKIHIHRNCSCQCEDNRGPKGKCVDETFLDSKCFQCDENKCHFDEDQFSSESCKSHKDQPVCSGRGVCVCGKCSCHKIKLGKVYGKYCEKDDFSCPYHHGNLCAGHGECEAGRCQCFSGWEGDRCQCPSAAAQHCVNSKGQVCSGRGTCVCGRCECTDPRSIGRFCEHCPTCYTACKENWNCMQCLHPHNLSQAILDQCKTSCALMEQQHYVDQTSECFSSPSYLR

[10] = target: recombinant human αvβ8 integrin (human) (UniProt P06756); test: SPR (Biacore T200), Fab over biotinylated recombinant αvβ8 on streptavidin chip, n>=3
[11] = target: T5, recombinant mouse αvβ8 integrin (mouse, UniProt P43406 31-988; Q0VBD0 22-681, limits assumed); test: as above
T5 construct: Recombinant protein immobilised on the Biacore chip
T5 sequence (P43406 31-988 limits assumed, chain 1 of 2): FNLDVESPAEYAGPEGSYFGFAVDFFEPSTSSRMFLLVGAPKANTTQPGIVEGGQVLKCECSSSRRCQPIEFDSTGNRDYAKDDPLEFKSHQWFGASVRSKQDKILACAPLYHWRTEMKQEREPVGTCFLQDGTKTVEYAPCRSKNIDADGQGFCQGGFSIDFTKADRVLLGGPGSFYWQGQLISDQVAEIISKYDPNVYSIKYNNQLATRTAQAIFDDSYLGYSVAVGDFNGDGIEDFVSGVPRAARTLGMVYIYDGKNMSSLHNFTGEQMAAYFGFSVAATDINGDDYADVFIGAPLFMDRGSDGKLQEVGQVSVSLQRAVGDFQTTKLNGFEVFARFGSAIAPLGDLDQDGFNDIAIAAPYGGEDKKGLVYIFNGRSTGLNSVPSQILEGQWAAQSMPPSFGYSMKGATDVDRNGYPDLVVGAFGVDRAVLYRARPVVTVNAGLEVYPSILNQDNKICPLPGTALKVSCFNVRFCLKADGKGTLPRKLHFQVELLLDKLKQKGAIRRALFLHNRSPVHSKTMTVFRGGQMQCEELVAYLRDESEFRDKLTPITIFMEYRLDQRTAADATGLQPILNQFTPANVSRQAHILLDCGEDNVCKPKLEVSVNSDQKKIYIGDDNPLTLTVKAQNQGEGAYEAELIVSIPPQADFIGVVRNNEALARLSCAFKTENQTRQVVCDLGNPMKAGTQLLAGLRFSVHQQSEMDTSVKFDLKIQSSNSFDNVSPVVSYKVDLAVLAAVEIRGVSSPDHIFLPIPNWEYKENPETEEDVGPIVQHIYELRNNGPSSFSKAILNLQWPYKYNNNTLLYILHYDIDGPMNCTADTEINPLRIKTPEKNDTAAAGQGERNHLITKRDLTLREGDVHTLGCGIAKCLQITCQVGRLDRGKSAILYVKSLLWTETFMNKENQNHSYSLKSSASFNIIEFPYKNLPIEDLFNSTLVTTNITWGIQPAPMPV
T5 sequence (Q0VBD0 22-681 limits assumed, chain 2 of 2): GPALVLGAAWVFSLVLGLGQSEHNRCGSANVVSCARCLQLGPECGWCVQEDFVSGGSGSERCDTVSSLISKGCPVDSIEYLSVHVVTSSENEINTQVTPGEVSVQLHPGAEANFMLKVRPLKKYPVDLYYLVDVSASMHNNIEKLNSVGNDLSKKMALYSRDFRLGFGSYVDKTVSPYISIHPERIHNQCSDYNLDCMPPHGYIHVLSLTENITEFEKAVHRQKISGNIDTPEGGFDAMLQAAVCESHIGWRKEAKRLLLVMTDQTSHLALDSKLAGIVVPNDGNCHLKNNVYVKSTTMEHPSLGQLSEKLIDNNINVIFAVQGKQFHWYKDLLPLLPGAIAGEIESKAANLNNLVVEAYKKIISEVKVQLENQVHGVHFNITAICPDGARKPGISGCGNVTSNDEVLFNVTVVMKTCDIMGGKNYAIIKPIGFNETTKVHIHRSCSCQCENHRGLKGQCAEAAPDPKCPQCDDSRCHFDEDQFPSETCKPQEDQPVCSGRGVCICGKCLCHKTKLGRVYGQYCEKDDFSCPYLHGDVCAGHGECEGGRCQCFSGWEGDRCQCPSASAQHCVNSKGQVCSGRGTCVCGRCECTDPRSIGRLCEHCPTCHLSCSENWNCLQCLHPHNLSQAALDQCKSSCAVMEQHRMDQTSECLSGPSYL
Experimental: (§1) More specifically, recombinant αvβ8 integrin (e.g., R&D Systems) was biotin labeled via primary amines and immobilized on a Sensor Chip SA using a Biacore™ T200 instrument (GE Healthcare Life Sciences). Fab binding experiments were performed at 25° C. using a 30 μl/min flow rate in 0.01 M HEPES pH 7.4, 0.15 M NaCl, 1-2 mM MgCl₂, and 0.005% v/v surfactant P20 (HBS-P) buffer. Association was monitored for 5-10 minutes and dissociation for a further 15-20 minutes for each Fab concentration. After each injection, the chip surface was regenerated with IgG elution buffer (Thermo Fisher Scientific). All data was analyzed using the Biacore™ T200 Evaluation software. Data was dual background subtracted using the adjacent flow cell coupled with streptavidin without captured integrin, and buffer only injections. Kinetic constants for at least three experiments were obtained and reported as the mean.
(§2) To evaluate the monomeric KD of the Fab ADWA11 2.4, also referred to herein as ADWA-11 VH05-2/VK01(2.4) and ADWA11 5-2 2.4, and the parental mouse IgG, recombinant human, cynomolgus, mouse, and rat αvβ8 was immobilized on a Biacore chip and the ka and kd of the Fabs were determined as generally described herein (Table 6).

[12] = target: T1, recombinant cynomolgus monkey αvβ8 …; test: as above
Experimental: as §1, §2

[13] = target: T6, recombinant rat αvβ8 integrin (rat, UniProt F1LZX9 31-987; A0A0G2JVU1 43-682); test: as above
T6 construct: Recombinant protein immobilised on the Biacore chip
Experimental: as §1, §2

[14] = target: recombinant human αvβ8 integrin (human) (UniProt P06756); test: ELISA (DELFIA counts) on human αvβ8, Fab titration; identity of the molecule see the row before
[15] = target: T2, human αvβ8 integrin on U251 cells; test: flow cytometry, IgG binding to U251 cells (ΔMFI, background subtracted); EC50 unit inferred, axis Log10 [Ab] (nM); Table 7 of the text gives the rounded value as U251 app KD 823 pM
[16] = target: T3, recombinant human αvβ3 integrin; test: SPR (Biacore)
[17] = target: T4, recombinant human αvβ6 integrin; test: SPR (Biacore)
[18] = target: recombinant human αvβ8 integrin (human) (UniProt P06756); test: SPR (Biacore), Fab over immobilised recombinant αvβ8; the upper end is the human value of Tables 3 and 6

Binder | IgG Potency TGFB Assay IC50 (pM) [1] | Kd [5] | EC50 value measured by apparent affinity in the TGF-β transactivation assay [7] | Kd [8] | Kd [10] | koff [10] | kon [10] | Kd [11] | koff [11] | kon [11] | Kd [12] | koff [12] | kon [12] | other results
B1 | 183 pM | – | – | – | – | – | – | – | – | – | – | – | – | EC50 (read off the curve) [2]: 0.3 nM; binding result [3]: no binding (tested: about 500 nM); binding result [4]: no binding (tested: about 500 nM)
B2 | 148 pM | 0.43 nM | – | – | – | – | – | – | – | – | – | – | – | EC50 [6]: 0.434 nM
B3 | – | – | 1.3 nM | 0.05 nM and < 0.1 nM | 0.118 nM | 2.37e-05 s⁻¹ | 200000 M⁻¹ s⁻¹ | ≤ 0.1 nM | ≤ 2e-05 s⁻¹ | 220000 M⁻¹ s⁻¹ | ≤ 0.1 nM | ≤ 2e-05 s⁻¹ | 225000 M⁻¹ s⁻¹ | fold lower KD than the mouse hybridoma antibody ADWA-11 [8]: > 5 fold; EC50 (read off the curve) [9]: 1 nM; Kd [13]: 0.16 nM; koff [13]: 3.1e-05 s⁻¹; kon [13]: 194000 M⁻¹ s⁻¹; EC50 (read off the curve) [14]: 1 nM
B4 | – | 0.823 nM | – | – | – | – | – | – | – | – | – | – | – | EC50 [15]: 0.823 nM
B5 | – | – | 4.6 nM | 0.536 nM | 0.536 nM | 4.86e-05 s⁻¹ | 92200 M⁻¹ s⁻¹ | 0.489 nM | 5.03e-05 s⁻¹ | 103000 M⁻¹ s⁻¹ | 0.507 nM | 4.97e-05 s⁻¹ | 98100 M⁻¹ s⁻¹ | binding result [16]: no binding; binding result [17]: no binding; kon [8]: 92200 M⁻¹ s⁻¹; Kd [18]: 0.489 to 0.536 nM

From patent US20200079855A1 (Pfizer, published 2020)
